Experimental data: the supplement of paper PMC9170038

System: MS2 coat protein
Assay: apparent KD of MS2 coat protein; higher = weaker reporter binding
Settings: Eterna round: R107
Method in brief: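 Apparent KD stands for the median, per design, of fits to normalised cluster binding curves. The curves came from titrating on-chip-transcribed RNA switches on Illumina sequencing clusters with SNAP-549-labelled MS2 coat protein, twofold from 0.7 or 1.5 nM to 3 µM. Buffer was 100 mM Tris-HCl pH 7.5, 80 mM KCl, 4 mM MgCl2, without or with constant ligand.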

[1] = input ligand: theophylline 20 uM
[2] = input ligand: theophylline 2 mM
[3] = input ligand: tryptophan 2.4 mM

| Sequence | apparent KD of MS2 coat protein (input ligand: arginine 13.2 mM) | apparent KD of MS2 coat protein [1] | apparent KD of MS2 coat protein [2] | apparent KD of MS2 coat protein (input ligand: none) | apparent KD of MS2 coat protein [3] |
| --- | --- | --- | --- | --- | --- |
| CUUCGCAUAGGAAAACUAUGUGAAGAAAAUCGAGGACCGGUACGGCCGCCACUCGUCCUCAACAUGAGGAUCACCCAUGUAAUAA [Mat - Exclusion - Trytophan A - D6] | 17.3 nM | 21.2 nM | 20.4 nM |  |  |
| GUUGGUUUGCGAAGGAGCGGGUAUGUUUUCUACUGGAUCCUAACAUGAGGAUCACCCAUGUCCCAGGUAGGUCGCGCGGGCUUUG [12.aA] | 35.6 nM | 75.2 nM | 54.5 nM | 38.6 nM | 45.8 nM |
| UAAUAAGUGCCGGUUCUCAGAUCCUCAUGUCGAGGACCGGUACGGCCGCCACUCGAAACAUGAGGAUCACCCAUGUAAUAAUAAU [#08 Exclusion Tryptophan A] | 47.8 nM | 105 nM | 73.1 nM |  |  |
| AGCAUUGUAACAGAUACCAGACUUUUAAUGCCUCUAAUAACAUGAGGAUCACCCAUGUAUGUCCCUUGGCAGCUGUUAUGAUGCA [JR_ExcTheophyB_Sub008] | 68.1 nM | 171 nM |  |  | 112 nM |
| UACAUGAGGAUCACCCAUGUCGGCAGGGAAGGAGCGGCAAUAAAGCCAGGUAGGUCGCCCAUUAGUAUUUAUAAAUAAAUAUCCA [Same State - Arginine A] | 53.6 nM | 74.4 nM | 75.9 nM | 90 nM | 66.9 nM |
| UUGGCAGCAUGGGUGGCUGCCAAGGCUGAUACCAGCCACGAAAGUGGCCCUUGGCAGCAGCAAACAUGAGGAUCACCCAUGUUAA [(T)''-(M)'-(T)'-(Theo)-(Ms2)_Design3] | 87.2 nM | 105 nM | 104 nM | 86.3 nM | 93.3 nM |
| GCAUCCUAGUCGGCCGCCACUGGUAUCAACACCUUCACCCGUGUGCACAUGAGGAUCACCCAUGUUAGGACCGGGACUAGGAUGC [SSTryp B #19] | 8.01 nM | 12.5 nM | 9.55 nM |  |  |
| UGGGUACCGACGGCCGCCACUGACUAUAGACAUGAGGAUCACCCAUGUAGAGAUCCUAGACUACCCAGGACCGGGUCUGGUGCUA [Exclusion Tryptophane B GF6] | 61 nM | 165 nM | 149 nM |  |  |
| AUACAUGAGGAUCACCCAUGUCACACAGAAGGAGCGGCUGUAGAGCCAGGUAGGUCGCUGUACUCAAAAUACUUCAUACUCAUGU [JR_Nu_ExcArginiA_Sub033] | 34.9 nM | 34.7 nM | 37 nM | 33 nM | 27.5 nM |
| GCAGACAUGAGGAUCACCCAUGUACUUGGGCGAGGACCGGUACGGCCGCCACUCGUAGACUUGACGAGGAAAUGUUCUCGCAGGG [theeternabot_sameState_MS2_Trp_A_24] | 22.1 nM | 31.6 nM | 28.4 nM |  |  |
| AUCGUACCUGGUGAUACCAGCAAGUGAUUAUAACAUGAGGAUCACCCAUGUAAUCAGUGAUGCCCUUGGCAGCAUAAUCGGUACA [#24 Same State - Theophylline B] | 26.9 nM | 37.8 nM |  |  | 26.6 nM |
| GCUUGGGUCGCAAGGCCCUGGCGUUGCGAUACCAGCACGGUAACGUGCCCUUGGCAGCGCACAUGAGGAUCACCCAUGUGGUGCG [#1 Exclusion - Theophylline A Attempt #22 (HarryS)] | 16.5 nM | 27.8 nM | 229 nM | 18.3 nM | 17.4 nM |
| GCACGACAUGAGGAUCACCCAUGUGCCGAUACCAGCCGGAUAUACGGCCCUUGGCAGCGGAGUGGAUCCGGAGGACCAUGGGUAA [Same State Theophylline A GF7] | 2.16 nM | 156 nM | 250 nM | 236 nM | 92.5 nM |
| AAGACAUGAGGAUCACCCAUGUGUCAUGAAGGAGCGUCGGAAAUGACAGGUAGGUCGCAUGACCGUUGGCGCCGGAAACGGCGCA [SSAA #15] | 23.8 nM | 35.3 nM | 33.3 nM | 30.5 nM | 23.5 nM |
| UGUAACAUGAGGAUCACCCAUGUGAGUGAUACCAGAUAAGUAGUAGUCCCUUGGCAGCAUAUUGGGCGAGUGUAUAGUCUAUACG [Same State - Theophylline A (Freestyle 8)] | 111 nM | 183 nM |  |  | 150 nM |
| UAAAACAUGAGGAUCACCCAUGUAAAUGAUACCAGAGUGAUGAUCCUCCCUUGGCAGCAUAACGCUGAUUGAUUACAAUCAGCGA [Mat - Same State Theophlline A - Mod of Eli - D22] | 55.2 nM | 160 nM |  |  | 58.3 nM |
| UGUAUGUGAACUGAUACCAGACCUCAAUCUUGAGGAUCACCCAAGGAGGACGAAAGUCCGGUCCCUUGGCAGCAGUUCACAUACU [ThBS - Unstable 2] | 162 nM | 737 nM | 40.5 nM | 664 nM | 1390 nM |
| UAAUCGUAGGCGGCCGCCACUUUUUGGUAGUGUCCAUUGUACACUCACAUGAGGAUCACCCAUGUAAGGACCGGGCCCGCAUCAG [theeternabot_exclusion_MS2_Trp_B_32] | 17.9 nM | 24.7 nM | 17.7 nM |  |  |
| CGGUCGGUCGGUCGGUGAGUAUGGGAUGAAGGAGCGUGGGAAGCUACAGGUAGGUCGCAUCCGGGACAUGAGGAUCACCCAUGUU [#19 Same State - Arginine A] | 19.8 nM | 43.3 nM | 41.7 nM | 27.7 nM | 25.1 nM |
| CCGUUUUAUGGCGACAUAGGGCGGACUGAAGGAGCGGUAAAACAGCCAGGUAGGUCGCAGAGAUCCACAUGAGGAUCACCCAUGU [!0.aC] | 35.7 nM | 43.2 nM | 51.2 nM | 39.1 nM | 37.9 nM |
| AUUCAUGAAAACAUGACAUAGGGAUCACUCCGAGGACCGGUACGGCCGCCACUCGCGAGGAGGCACAUGAGGAUCACCCAUGUUA [SS Tryp A #3] | 36.8 nM | 146 nM | 180 nM | 115 nM | 108 nM |
| ACAACAUGAGGCGAUACCAGAGGCAACAUGAGGAUCACCCAUGUUCACCCAUGUGAUCACCUCCCUUGGCAGCGCACAUGAGGAU [Same State - Theophylline B #1] | 13.7 nM | 17 nM |  |  | 12.3 nM |
| UGUUUCGCGGGCGAUACCAGCUUGAUCGUACUGGCCUGGUACAUGAGGAUCACCCAUGUAAGCCCUUGGCAGCGCGCGCGAGACG [#1 Exclusion - Theophylline B Attempt #3 (HarryS)] | 19.6 nM | 18.9 nM | 32.4 nM | 13.5 nM | 15.7 nM |
| GUUAGUUACACGGCCGCCACUCUUUGGCUUGGCUCAAGCUCCCAACAUGAGGAUCACCCAUGUCAGAGGACCGGGUGAACAACGU [theeternabot_sameState_MS2_Trp_B_28] | 56.1 nM | 180 nM | 205 nM |  |  |
| AAAUAAAUACAUGAGGAUCACCCAUGUGAAGGAGCGCGCGUUAGCGCAGGUAGGUCGCACAUGAACUCCAAAGUGCGAAAGCACA [MAT - Exclusion Arginine A - Mod of Eli - D9] | 14.5 nM | 23.1 nM | 34.1 nM | 20 nM | 20.9 nM |
| UGACAUUGCUCAGAUACCAGACAUGAGGAUCACCCAUGUACCAAGAGUACAAAUUAAAAUGUCCCUUGGCAGCUGAGCAAUGUCU [TheoBX 7 #MS2Left #Theo2] | 25.4 nM | 37.8 nM |  |  | 19.3 nM |
| UCGACAGUGAACGAUACCAGCGUCACGUGGCCGGUGGUCACAUGAGGAUCACCCAUGUAACGCCCUUGGCAGCGUGCACGUAUCA [Latedirius] | 20.5 nM | 46.3 nM |  |  | 20.5 nM |
| CCUCAUGAACAUGAGGAUCACCCAUGUACACGAGGACCGGUACGGCCGCCACUCGAAUAACCUAAAUAUAAAUAAUAAUAAUAGG [5' end split MS2] | 14.6 nM | 20.1 nM | 18.1 nM |  |  |
